# Fewer inactive variants are shown than the library holds.
# Legend:
# [1] = system: biotinyl-Val-oxazolone; assay: self-aminoacylation, catalytic enhancement (BVO) (fold over background); higher = more active; k-Seq, kA / k0A0; sequences stand for … in GGGAAUGGAUCCACAUCUACGAAUUC…UUCACUGCAGACUUGACGAAGCUG
# How it was run: (§1)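 Working in 50 μL HEPES/NaCl/KCl/MgCl2/CaCl2 buffer with 5% acetonitrile at pH 6.9–7.0, mutagenized RNA pools (0.43 μM; 21-nt variable region) were reacted with 2–1250 μM of each biotinyl-aminoacyl-oxazolone for 90 minutes at room temperature. Streptavidin capture followed, with quantification by triplicate qPCR and Illumina sequencing. Catalytic enhancement is reported as median kA over the uncatalyzed rate, the low-activity peak of a bimodal Gaussian fit to the data.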
# [2] = system: biotinyl-Trp-oxazolone; assay: self-aminoacylation, catalytic enhancement (BWO) (fold over background); higher = more active; k-Seq, kA / k0A0; sequences stand for … in GGGAAUGGAUCCACAUCUACGAAUUC…UUCACUGCAGACUUGACGAAGCUG
# How it was run: as §1
# [3] = system: biotinyl-Ile-oxazolone; assay: self-aminoacylation, catalytic enhancement (BIO) (fold over background); higher = more active; k-Seq, kA / k0A0; sequences stand for … in GGGAAUGGAUCCACAUCUACGAAUUC…UUCACUGCAGACUUGACGAAGCUG
# How it was run: as §1
# [4] = system: biotinyl-Phe-oxazolone; assay: self-aminoacylation, catalytic enhancement (BFO) (fold over background); higher = more active; k-Seq, kA / k0A0; sequences stand for … in GGGAAUGGAUCCACAUCUACGAAUUC…UUCACUGCAGACUUGACGAAGCUG
# How it was run: as §1
# [5] = system: biotinyl-Met-oxazolone; assay: self-aminoacylation, catalytic enhancement (BMO) (fold over background); higher = more active; k-Seq, kA / k0A0; sequences stand for … in GGGAAUGGAUCCACAUCUACGAAUUC…UUCACUGCAGACUUGACGAAGCUG
# How it was run: as §1
# [6] = system: biotinyl-Leu-oxazolone; assay: self-aminoacylation, catalytic enhancement (BLO) (fold over background); higher = more active; k-Seq, kA / k0A0; sequences stand for … in GGGAAUGGAUCCACAUCUACGAAUUC…UUCACUGCAGACUUGACGAAGCUG
# How it was run: as §1
Sequence,self-aminoacylation [1],self-aminoacylation [2],self-aminoacylation [3],self-aminoacylation [4],self-aminoacylation [5],self-aminoacylation [6]
AACUUUGCUAAUCGUCGCAAG [Fam3.1 aminoacylation ribozyme variant],1.89,2.15,1.93,9.09,2.21,2.66
AACUUUGCUUAUAGUCGCAAG [Fam3.1 aminoacylation ribozyme variant],2.2,2.98,2.58,3.75,3.18,2.98
AACUUUGUUAAUAGUCGCAAG [Fam3.1 aminoacylation ribozyme variant],2.06,2.76,2.29,3.96,2.26,2.47
AAGACCCUGGUCAUCGAGUGA [Fam2.1 aminoacylation ribozyme variant],4.66,9.36,4.58,21.6,9.05,10.2
AAGAUCGCUAAUAGUCGCAAG [Fam3.1 aminoacylation ribozyme variant],1.51,1.96,1.86,3.04,1.79,2.08
AAGAUUGCGAAUAGUCGCAAG [Fam3.1 aminoacylation ribozyme variant],1.71,2.46,1.47,1.72,1.17,1.33
AAGAUUGCUAAGAGUCGCAAG [Fam3.1 aminoacylation ribozyme variant],1.29,2.56,1.41,1.73,1.41,1.3
AAGAUUGCUAAUAGUCUCAAG [Fam3.1 aminoacylation ribozyme variant],1.08,1.18,1.1,1.48,0.751,1.09
AAGAUUGCUACUAGUCGCAAG [Fam3.1 aminoacylation ribozyme variant],1.32,1.98,1.55,2.44,1.27,1.73
AAGAUUUCUAAUAGUCGCAAG [Fam3.1 aminoacylation ribozyme variant],1.45,2.17,1.81,3.12,1.71,1.49
AAGCCUGCUAAUAGUCGCAAG [Fam3.1 aminoacylation ribozyme variant],1.77,11.1,1.86,37.3,1.61,1.64
AAGCUUGCCAAUAGUCGCAAG [Fam3.1 aminoacylation ribozyme variant],2.42,3.62,2.31,3.44,2.48,2.23
AAGCUUGCUAAUAGUCACAAG [Fam3.1 aminoacylation ribozyme variant],1.35,1.28,1.64,4.35,1.5,1.65
AAGGUUCCUAAUAGUCGCAAG [Fam3.1 aminoacylation ribozyme variant],1.39,1.43,1.61,1.62,1.64,1.5
AAGGUUGCAAAUAGUCGCAAG [Fam3.1 aminoacylation ribozyme variant],1.08,1.66,1.41,1.44,1.02,1.2
AAGGUUGCUAAUAAUCGCAAG [Fam3.1 aminoacylation ribozyme variant],1.02,1.59,1.41,1.47,1.11,1.19
AAGGUUGCUAAUAGUCGAAAG [Fam3.1 aminoacylation ribozyme variant],1.44,2.33,1.51,6.22,1.36,0.938
AAGGUUGCUAAUAGUCGCAAA [Fam3.1 aminoacylation ribozyme variant],1.42,1.4,1.86,1.51,1.28,1.63
AAGGUUGCUAAUAGUCGCAAU [Fam3.1 aminoacylation ribozyme variant],1.46,1.61,1.99,3.18,1.81,1.68
AAGGUUGCUAAUAGUGGCAAG [Fam3.1 aminoacylation ribozyme variant],0.79,0.638,0.698,0.712,0.863,0.977
AAGGUUGCUAAUCGUCGCAAG [Fam3.1 aminoacylation ribozyme variant],1.2,2.14,1.27,3.36,1.07,1.09
AAGGUUGCUCAUAGUCGCAAG [Fam3.1 aminoacylation ribozyme variant],1.25,1.5,1.46,4.12,1.57,1.63

Sequence,self-aminoacylation [1],self-aminoacylation [2],self-aminoacylation [3],self-aminoacylation [4],self-aminoacylation [5],self-aminoacylation [6]
AAGUACGCUAAUAGUCGCAAG [Fam3.1 aminoacylation ribozyme variant],1.8,3.1,1.94,6.76,1.59,2.38
AAGUAUGCUAAUAGGCGCAAG [Fam3.1 aminoacylation ribozyme variant],1.18,1.58,0.992,0.856,0.748,1.08
AAGUAUGCUAAUAGUCCCAAG [Fam3.1 aminoacylation ribozyme variant],1.16,1.54,1.14,3.66,1.18,1.02
AAGUAUGCUAAUAGUCGCAAA [Fam3.1 aminoacylation ribozyme variant],1.96,1.7,1.82,3.99,1.67,1.26
AAGUAUGCUAAUAGUCGCAAC [Fam3.1 aminoacylation ribozyme variant],0.942,1.23,1.22,2.19,1.2,1.28
AAGUAUGCUAGUAGUCGCAAG [Fam3.1 aminoacylation ribozyme variant],1.35,1.12,1.26,2.22,1.22,0.756
AAGUCAGCUAAUAGUCGCAAG [Fam3.1 aminoacylation ribozyme variant],2,3.06,1.94,5.28,1.83,2.22
AAGUCUGCUAAUAGCCGCAAG [Fam3.1 aminoacylation ribozyme variant],1.02,3.25,1.11,8.57,1.13,0.989
AAGUCUGCUAAUAGUCGAAAG [Fam3.1 aminoacylation ribozyme variant],1.04,6.05,1.1,16.8,1.84,1.52
AAGUCUGCUAAUAGUCGCAAC [Fam3.1 aminoacylation ribozyme variant],1.06,0.655,1.03,1.39,1.04,1.39
AAGUCUGCUAAUAGUCGCCAG [Fam3.1 aminoacylation ribozyme variant],1.32,3.43,1.1,1.8,1.34,1.04
AAGUCUGCUAAUCGUCGCAAG [Fam3.1 aminoacylation ribozyme variant],1.01,1.94,0.996,4.49,1.36,1.15
AAGUGUACUAAUAGUCGCAAG [Fam3.1 aminoacylation ribozyme variant],1.51,1.2,1.4,1.74,1.17,1.2
AAGUGUCCUAAUAGUCGCAAG [Fam3.1 aminoacylation ribozyme variant],0.995,0.664,1.18,0.985,0.945,0.952
AAGUGUGCGAAUAGUCGCAAG [Fam3.1 aminoacylation ribozyme variant],1.82,1.38,1.72,2.28,1.79,1.76
AAGUGUGCUAAGAGUCGCAAG [Fam3.1 aminoacylation ribozyme variant],0.87,2.15,1.11,5.24,1.15,1.13
AAGUGUGCUAAUAUUCGCAAG [Fam3.1 aminoacylation ribozyme variant],1.53,2.22,1.92,1.63,1.58,1.51
AAGUUAGCUAACAGUCGCAAG [Fam3.1 aminoacylation ribozyme variant],1.68,1.56,1.83,2.2,2.31,1.66
AAGUUAGCUAAUAGCCGCAAG [Fam3.1 aminoacylation ribozyme variant],1.6,2.02,1.88,1.96,0.903,1.44
AAGUUAGCUAAUAGUCGCAUG [Fam3.1 aminoacylation ribozyme variant],1.34,1.64,1.83,3,1.07,1.97
AAGUUAGCUAAUAGUCGGAAG [Fam3.1 aminoacylation ribozyme variant],1.32,1.94,1.07,3.13,1.12,1.28

# Source: the supplement of paper PMC9233669
